Data as given in the supplement of paper PMC9732359.
± gives the uncertainty stated by the source.

Experiment: protein stability index of a GFP-peptide fusion (yeast GPS) (PSI 1-4); higher = more stable; sorted into four equal gates, so the index is relative within each strain
Procedure, shortened: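 Tiled yeast protein peptides of 17 residues were each joined downstream of GFP, on plasmids that also express Cherry. The pooled library was maintained in yeast, and mid-log cultures in leucine-free medium were sorted into four equal gates on the GFP/Cherry ratio. Plasmids from every gate were amplified by PCR and sequenced on Illumina, with barcodes linking reads to strains. The protein stability index of a peptide is its gate-number-weighted read frequency summed over the gates.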

Sequence | protein stability index (pdr5∆) | protein stability index (san1∆) | protein stability index (ubr1∆) | protein stability index (doa10∆)
ERSKQLNEKFQELRKKV [SMC2] | 2.78 ± 0.24 | 3.33 ± 0.097 | 2.81 ± 0.15 | 
ERVIVVTGFAEVGPWGS [FAS2] | 1.36 ± 0.083 | 2.03 ± 0.11 | 1.47 ± 0.074 | 1.16 ± 0.085
ESDNYRLLPNGSNKAQI [YML031W/NDC1] | 3.18 ± 0.067 | 2.78 ± 0.047 | 2.95 ± 0.035 | 3.08 ± 0.061
ESEQELSLHTGFIENCN [MTR3] | 2.99 ± 0.067 | 2.88 ± 0.063 | 2.93 ± 0.053 | 2.62 ± 0.067
ESESERKYDLFQNLELE [SMC2] | 3.33 ± 0.077 | 3.35 ± 0.068 | 3.3 ± 0.072 | 3.37 ± 0.074
ESFAELMTKLNSFKLFK [RPC17] | 2.71 ± 0.086 | 1.59 ± 0.099 | 2.06 ± 0.081 | 3.03 ± 0.1
ESGKVFIGRLPIMLRSK [RPB2] | 2.67 ± 0.062 | 2.94 ± 0.08 | 2.79 ± 0.058 | 2.83 ± 0.1
ESLKNLNESRSQHKKIL [SMC3] | 3.05 ± 0.098 | 2.85 ± 0.1 | 3.04 ± 0.096 | 2.78 ± 0.13
ESLTNSNMFDNSADVDM [YGL100W/SEH1] | 3.57 ± 0.086 | 3.48 ± 0.056 | 3.36 ± 0.093 | 3.34 ± 0.085
ESMAYTAFQTQRTAQDR [YML031W/NDC1] | 3.27 ± 0.099 | 3.23 ± 0.067 | 2.85 ± 0.16 | 3.27 ± 0.076
ESNDRINKIVEILTNQQ [YGR119C/NUP57] | 2.77 ± 0.23 | 2.57 ± 0.13 | 2.23 ± 0.085 | 
ESNIKMTLEDNNVTSNP [SSN2] | 3.25 ± 0.11 | 2.68 ± 0.086 | 2.95 ± 0.055 | 2.91 ± 0.092
ESRAQNVFGQDNEDSDN [SWI3] | 3.16 ± 0.075 | 3.33 ± 0.048 | 3.2 ± 0.052 | 3.24 ± 0.1
ESRSFSPIPFPPLTYKN [PRP8] | 3 ± 0.08 | 2.6 ± 0.058 | 2.62 ± 0.047 | 3.04 ± 0.074
ESYYNWKYNNFLQKFEI [YML103C/NUP188] | 2.83 ± 0.052 | 2.77 ± 0.059 | 2.72 ± 0.034 | 2.47 ± 0.056
ETAAMASLALAHVFVGT [RPN1] | 1.58 ± 0.047 | 1.61 ± 0.098 | 1.41 ± 0.052 | 1.39 ± 0.044
ETALEFLEKEKQLTLLR [SMC4] | 2.65 ± 0.074 | 2.66 ± 0.12 | 2.92 ± 0.058 | 3.46 ± 0.1
ETATLIMNELYRMKGGR [SMC3] | 3.21 ± 0.12 | 2.82 ± 0.1 | 3.26 ± 0.084 | 3.07 ± 0.088
ETFQDTFSGALGKQSSS [FAS2] | 3.32 ± 0.066 | 3.15 ± 0.039 | 3.11 ± 0.055 | 3.23 ± 0.063
ETLAYNSLKETLQDFHL [SNF2] | 3.04 ± 0.058 | 2.61 ± 0.055 | 2.7 ± 0.042 | 2.88 ± 0.054
ETLENNIVSVLTAGVNS [RPN11] | 2.65 ± 0.076 | 2.24 ± 0.11 | 2.57 ± 0.09 | 2.5 ± 0.1
ETLVLDEADKMIDLGFE [PRP28] | 3.22 ± 0.12 | 3.31 ± 0.088 | 3.08 ± 0.056 | 3.18 ± 0.094
ETLVLSYFSPINSSNEA [YCG1] | 1.55 ± 0.087 | 1.25 ± 0.19 | 2.13 ± 0.055 | 2.67 ± 0.096
ETQLKVVTRSKEAFEEE [SMC1] | 3.25 ± 0.15 |  | 3.39 ± 0.085 | 
ETRNGKVKNQGADVTNT [YCS4] | 3.45 ± 0.17 | 3.11 ± 0.072 | 3.18 ± 0.076 | 3.22 ± 0.1
ETRRKTTTVLKRYANHT [RET1] | 2.98 ± 0.084 | 3.09 ± 0.045 | 2.94 ± 0.05 | 2.14 ± 0.083

Sequence | protein stability index (pdr5∆) | protein stability index (san1∆) | protein stability index (ubr1∆) | protein stability index (doa10∆)
ETVKLPRVSNQSNEDTF [RRI2] | 3.22 ± 0.14 | 2.94 ± 0.19 | 3.24 ± 0.1 | 3.06 ± 0.13
EVAQYLQEIYQTDAIKS [RPN5] | 2.44 ± 0.099 | 2.47 ± 0.1 | 2.29 ± 0.13 | 2.3 ± 0.084
EVESSDTIDNVKSKIQD [RPS31] | 2.78 ± 0.17 | 3.12 ± 0.1 |  | 3.11 ± 0.21
EVLTYVNYLISNTMYSV [YJL039C/NUP192] | 2.35 ± 0.054 | 2.45 ± 0.044 | 2.5 ± 0.042 | 2.45 ± 0.056
EVPEGVTVSIKSRIVKV [RPL9A] | 1.86 ± 0.061 | 1.57 ± 0.097 | 2.26 ± 0.091 | 1.51 ± 0.064
EVYDFTHAVGNNCEDFV [FAS1] | 3 ± 0.18 | 2.99 ± 0.071 | 3.05 ± 0.086 | 3.15 ± 0.12
EWRKSAIANTLLYLRLK [PRP8] | 1.54 ± 0.051 | 1.41 ± 0.095 | 1.37 ± 0.047 | 1.85 ± 0.063
EYEELKEKIEKLSKSAT [SMC1] | 3.09 ± 0.22 | 2.98 ± 0.079 | 3.08 ± 0.073 | 3.33 ± 0.12
EYFGGESPVDVQSQVDS [FAS1] | 3.38 ± 0.1 | 3.19 ± 0.11 | 3.07 ± 0.092 | 3.01 ± 0.14
EYIELEYRDLYTNSVEL [YMR129W/POM152] | 3.28 ± 0.096 | 3.27 ± 0.085 |  | 3.16 ± 0.11
EYKKHFPPNLEKGENPS [UBP6] | 2.76 ± 0.055 | 2.42 ± 0.073 | 1.93 ± 0.053 | 2.9 ± 0.097
EYKSLFVVGVDNVSSQQ [RPP0] | 2.79 ± 0.067 | 3.29 ± 0.091 | 3.24 ± 0.053 | 3.22 ± 0.055
EYKTSSDSLGPDTSNEI [SRB2] | 2.47 ± 0.089 | 2.96 ± 0.2 | 2.55 ± 0.1 | 2.67 ± 0.23
EYKVITSLQGTYEAIEI [YMR129W/POM152] | 2.99 ± 0.2 | 2.89 ± 0.14 | 3.17 ± 0.13 | 3.34 ± 0.2
EYLTLNDFNDLNIDWST [MED2] | 2.92 ± 0.062 | 2.6 ± 0.053 | 2.51 ± 0.043 | 2.83 ± 0.06
EYMVQYIDEMYNHNDGG [RRI1] | 3.24 ± 0.076 | 3.21 ± 0.14 | 3.19 ± 0.087 | 3.03 ± 0.052
EYNKPNSEKFVFLLTTR [ISW2] | 2.58 ± 0.099 | 1.59 ± 0.083 | 2.43 ± 0.12 | 3.09 ± 0.19
EYSPEILQIREEIPSKS [RRP6] | 2.79 ± 0.08 | 2.54 ± 0.072 | 2.88 ± 0.044 | 2.66 ± 0.068
EYSYVDSNMDSISSVVS [RPN4] | 3.26 ± 0.066 | 2.68 ± 0.076 | 3.05 ± 0.043 | 2.84 ± 0.075
EYYRIQKQLPQKTRVKL [ESC2] | 2.77 ± 0.05 | 2.86 ± 0.05 | 2.82 ± 0.039 | 2.79 ± 0.055
FANNHFLNSNAVVVGTG [COR1] | 1.91 ± 0.061 | 2.33 ± 0.064 | 2.04 ± 0.056 | 1.41 ± 0.064
FASLRVLPDADVKLLHS [YJL039C/NUP192] | 2.11 ± 0.1 | 1.54 ± 0.2 | 2.14 ± 0.11 | 
FAWSKPSTGSNLQQQQQ [YGR119C/NUP57] | 3.06 ± 0.063 | 3.02 ± 0.05 | 2.95 ± 0.045 | 3.02 ± 0.061
FDDSDITKFALFAESHD [YML103C/NUP188] |  | 2.92 ± 0.15 |  | 2.71 ± 0.3
FDENIARDIISHNFQNA [PCI8] | 2.77 ± 0.046 | 2.67 ± 0.043 | 2.77 ± 0.039 | 2.74 ± 0.053
FDFLMNMPNCDYLTLNK [RPN2] | 2.31 ± 0.068 | 2.07 ± 0.076 | 1.74 ± 0.039 | 2.76 ± 0.054
